For assay [1], the target named is DDM1 N terminus (1–148) with K102E and K120E (Arabidopsis thaliana) (UniProt Q9XFH4). In words: pull-down; in vitro pulldown of recombinant CDCA7α N terminus (1-136) with DDM1 N terminus (1-148); blots quantified, averages of nine (CDCA7α mutations) and five (DDM1 mutations) replicates.
Assay [2] concerns the target DDM1 N terminus (1–148) (Arabidopsis thaliana) (UniProt Q9XFH4). The description is as above.
Assay [3] concerns the target T1, CDCA7α N terminus (1–136).
T1 chain: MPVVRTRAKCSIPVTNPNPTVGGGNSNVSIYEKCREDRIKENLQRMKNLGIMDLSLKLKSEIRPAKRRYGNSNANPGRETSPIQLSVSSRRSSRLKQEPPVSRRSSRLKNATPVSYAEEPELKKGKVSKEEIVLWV
Kind of assay: pull-down (GST pulldown, anti-His western blot, quantified). As to conditions: chain shown with the change; n = 5 pulldown replicates; parent: est. 98; read off a plot. In general terms: A western blot detects proteins with antibodies after separation by electrophoresis.

For the molecule “CDCA7α N terminus (1–136) (domain or fragment)”, in assay [1], the loss of binding relative to the WT is 50 % loss.
Regarding “CDCA7α N terminus (1–136) with E32K, E41K, E61K and I62A (domain or fragment)”, the binding relative to the WT in assay [2] was 50 % of the WT.

B1: DDM1 N terminus (1–148), Q9XFH4 K102E; K120E; F116A; I124A (protein)
chain: MVSLRSRKVIPASEMVSDGKTEKDASGDSPTSVLNEEENCEEKSVTVVEEEILLAKNGDSSLISEAMAQEEEQLLKLREDEEKANNAGSAVAPNLNETQFTELDELLTQTQLYSEALLEEMEDATINGIESESQKAEPEKTGRGRKRK
Turning to B1, the response in assay [3] amounted to 4.

(Values after publication PMC12711577.)
